# Laboratory results: article PMC9378563
# How the values were obtained:
# [1] = biological target: L21A variant of HIV-1 gp41 Core (Core^L21A) (HIV-1 (HXB2 numbering named)); assay: NMR, 15N ZZ exchange
# [2] = biological target: L21A variant of HIV-1 gp41 Core (Core^L21A) (HIV-1 (HXB2 numbering named)); assay: SEC-MALS
# [3] = biological target: L21A variant of HIV-1 gp41 Core (Core^L21A) (HIV-1 (HXB2 numbering named)); assay: NMR, 1H-15N HSQC resonance amplitudes of trimer and monomer
substance,measurement,setting,value
L21A variant of HIV-1 gp41 Core (Core^L21A) (domain or fragment),kex (koff[B]^2 + 3kon[M]^2),[1],1.05 s⁻¹
same,stoichiometry N,[2],3
same,Kd = [M]^3/([T][B]^2) (6HB trimer + 2 bicelles to 3 lipid-bound monomers),[3],2.8
same,population of the lipid-bound (monomeric) state,[3],71%
